Here are results for 6 molecules from publication PMC8591511, “Flexible open conformation of the AP-3 complex explains its role in cargo recruitment at the Golgi” (The Journal of Biological Chemistry, 2021).

First the molecules themselves.
B2: Apl6 (β3-subunit of yeast AP-3) (natural protein, S. cerevisiae, UniProt P46682 1-809, looked up)
chain: MVDSIHRIASALDTAKVITREAAAVATSKLGESSYTYYSQNINPQQLVTLLNSRNSREVRDAMKRIISIMASDDDSIDVQLYFADVVKNITTNDTKVKRLIHLYLLRFAENDPNLTLLSINSLQKSLSDSNSELRCFALSALSDMKMSSLAPIILHTVKKLVTDPSAMVRGEVALAIIKLYRAGKNDYHEELLDILKELMADTDPKVISCAVLAYKECYADHLELLHGHFRRYCRIIKQLDSWSQSYLIELLIKYCKQYLPKPTVVDKSSEGSPRSCPLPDKYNEIEYPSYEVVNDPDLDLFLQSLNCLIYSSNPTVILSCCNALYQLASPLQMKNTKFIEALVRTVTMTENQGNKEMLLQAIHFLSILDQTLFLPYTKKFYVFPKDPIVASIWKIQILSTLINESNVKEIFKELKYYVASAHFPENVVIMAVKSLSRCGQLSTSWESHVMKWLIDHMESHNLSASVLDAYVNVIRMLVQKNPTKHLRIIFKLADLLTVQTSLADNARAGIVWLFGEIASIEFKICPDVLRRLIQNFSNEGPETRCQILVLSAKLLSYDIDNFKQAQVTGSEENNQNPPYYDFSGSRISQMYNAVLYLAKYDDEFDIRDRARMISSLFDSGKYEIVSLLLQAPKPTARSDDFIVSARLETHTPEIKEFFRMLPWNTEITEVGETGNDIREGAELKDYNKYKKSFSSQSFITNNSARSFTSSSNAKLTGINDGDSNSISGKGNVNTFTSQNGKKYRLQSLDEFFSDIPERKSKPRKIIKVVEESSDEDEDESEESSDDDEYSDSSLGTSSSGTSSSHLEL
notes: Apl6, β3-subunit of the yeast AP-3 complex; ear domain aa 631–809

For test [1], the target named is GST-Chs3(aa1-38)-Vam3(TMD) (not stated | yeast) (UniProt P29465). The test is described as follows: liposome flotation assay; proteoliposomes (Golgi-mimicking lipid mix) carrying a total of 1 μM cargo, incubated with purified AP-1 or AP-3 complex, floated on a sucrose step gradient; top fraction TCA-precipitated, SDS-PAGE, band of Apl4 or Apl5 quantified as percent of load; in Fig. 6E without PIPs or Arf1, in Fig. 6D also with Arf1 and PI3P or PI4P; 150 mM NaCl, 20 mM HEPES/NaOH pH 7.4, 1 mM MgCl2, 10 % glycerol, 60 min 4 °C.
Chain of GST-Chs3(aa1-38)-Vam3(TMD) (not stated | yeast) (P29465 other isoform, or with tags, fused parts or gaps): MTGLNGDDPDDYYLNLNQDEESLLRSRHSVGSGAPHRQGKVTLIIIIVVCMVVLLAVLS

Test [2] concerns the target Vam3 (yeast vacuolar SNARE, AP-3 cargo with dileucine motif) (yeast) (UniProt Q12241). The description is as above.
Test [3] addresses N-myristoylated Arf1, loaded with GTP or GTPγS by Sec7ΔC (UniProt P11076). The test is described as follows: liposome flotation assay; empty liposomes (Golgi-mimicking lipid mix, with or without PI3P or PI4P) incubated with increasing Arf1, Sec7 GEF and GTP, then purified AP-1 or AP-3 complex; floated on a sucrose step gradient; band of Apl4 or Apl5 in the top fraction quantified.

Test [4] has as its target T1, Apl5 (δ-subunit of yeast AP-3) with C-terminal 3xFLAG-tag (S. cerevisiae, UniProt Q08951 1-932).
T1 construct: Apl5, δ-subunit of the yeast AP-3 complex; ear domain aa 639–932; also called δ-adaptin; not shown: 3xFLAG, C-terminal, kept
T1 sequence (looked up): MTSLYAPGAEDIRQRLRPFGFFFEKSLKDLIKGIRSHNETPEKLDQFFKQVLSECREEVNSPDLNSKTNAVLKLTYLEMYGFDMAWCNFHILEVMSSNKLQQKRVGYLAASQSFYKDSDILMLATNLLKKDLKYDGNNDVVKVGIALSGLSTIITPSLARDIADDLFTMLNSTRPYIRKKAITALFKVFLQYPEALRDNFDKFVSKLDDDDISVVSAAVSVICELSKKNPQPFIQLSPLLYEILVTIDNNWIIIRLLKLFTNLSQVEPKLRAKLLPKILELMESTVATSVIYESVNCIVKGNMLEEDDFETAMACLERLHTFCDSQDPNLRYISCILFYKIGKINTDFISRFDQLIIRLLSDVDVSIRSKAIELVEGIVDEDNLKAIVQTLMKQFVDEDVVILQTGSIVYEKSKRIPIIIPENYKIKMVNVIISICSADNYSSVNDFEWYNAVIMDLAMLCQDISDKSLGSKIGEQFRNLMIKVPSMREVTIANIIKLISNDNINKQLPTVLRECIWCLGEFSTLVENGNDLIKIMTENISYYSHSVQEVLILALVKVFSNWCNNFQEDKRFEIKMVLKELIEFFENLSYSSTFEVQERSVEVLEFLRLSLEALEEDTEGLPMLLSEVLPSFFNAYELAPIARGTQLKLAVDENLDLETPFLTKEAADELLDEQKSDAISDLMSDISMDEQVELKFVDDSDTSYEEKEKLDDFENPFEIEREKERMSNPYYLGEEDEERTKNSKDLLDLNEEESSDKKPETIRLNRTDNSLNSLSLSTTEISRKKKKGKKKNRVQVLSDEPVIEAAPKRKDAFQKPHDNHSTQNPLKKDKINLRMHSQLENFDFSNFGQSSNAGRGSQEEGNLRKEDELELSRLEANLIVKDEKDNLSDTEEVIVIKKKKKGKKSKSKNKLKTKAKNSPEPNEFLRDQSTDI
The test is described as follows: cross-linking; 200 μg of purified AP-3 complex, DSSO 0.5 mM added twice, 20 min each at room temperature, quenched with Tris; trypsin, SCX, LC/MS (XlinkX, 1% FDR). To be noted: both partners purified.

For test [5], the target named is B2. Described as above. To be noted: both partners purified.
The target of test [6] is T1, Apl5 (δ-subunit of yeast AP-3) with …. As to the kind of experiment: pull-down + SEC; subunits overproduced together in yeast; captured from cleared lysate on anti-FLAG M2 affinity gel via the C-terminal 3xFLAG-tag on Apl5 (AP-3) or Apl4 (AP-1), eluted with FLAG-peptide, run on Superose 6 Increase; 150 mM NaCl, 20 mM HEPES/NaOH pH 7.4, 1.5 mM MgCl2; Coomassie staining after SDS-PAGE. The following applies: partners not purified.

The target in test [7] is T2, full-length yeast AP-3 complex (S. cerevisiae, UniProt Q08951 1-932; P46682 1-809; P38153 1-483; P47064 1-194).
T2 construct: Apl5, δ-subunit of the yeast AP-3 complex; ear domain aa 639–932; Apl6, β3-subunit of the yeast AP-3 complex; ear domain aa 631–809; Apm3, μ3-subunit of the yeast AP-3 complex; Aps3, σ-subunit of the yeast AP-3 complex; Heterotetramer with apparent equimolar stoichiometry, about 300 kDa; also called adapter protein complex 3; copies: + + +
As to the kind of experiment: liposome flotation assay; proteoliposomes (Golgi-mimicking lipid mix) carrying a total of 1 μM cargo, incubated with purified AP-1 or AP-3 complex, floated on a sucrose step gradient; top fraction TCA-precipitated, SDS-PAGE, band of Apl4 or Apl5 quantified as percent of load; in Fig. 6E without PIPs or Arf1, in Fig. 6D also with Arf1 and PI3P or PI4P; 150 mM NaCl, 20 mM HEPES/NaOH pH 7.4, 1 mM MgCl2, 10 % glycerol, …. The following applies: both partners purified.

Chain of Vam3 (yeast vacuolar SNARE, AP-3 cargo with dileucine motif) (yeast) (Q12241 whole entry): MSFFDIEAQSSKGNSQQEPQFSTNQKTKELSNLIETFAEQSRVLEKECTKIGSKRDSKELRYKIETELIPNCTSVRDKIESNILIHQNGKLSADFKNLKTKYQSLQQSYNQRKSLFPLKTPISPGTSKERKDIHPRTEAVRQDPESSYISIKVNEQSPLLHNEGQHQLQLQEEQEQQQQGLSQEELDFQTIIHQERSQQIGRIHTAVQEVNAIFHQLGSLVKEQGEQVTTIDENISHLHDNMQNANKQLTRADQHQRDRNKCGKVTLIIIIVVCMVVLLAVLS
Chain of N-myristoylated Arf1, loaded with GTP or GTPγS by Sec7ΔC (P11076 whole entry, stated change not applied): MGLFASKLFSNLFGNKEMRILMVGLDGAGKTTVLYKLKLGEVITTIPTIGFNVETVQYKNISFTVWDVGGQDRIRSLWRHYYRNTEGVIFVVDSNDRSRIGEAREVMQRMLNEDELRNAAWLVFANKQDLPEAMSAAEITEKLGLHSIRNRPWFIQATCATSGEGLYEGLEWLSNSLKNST

In the case of “full-length yeast AP-3 complex, Q08951 1-932; P46682 1-809; P38153 1-483; P47064 1-194”, the percent of AP-3 recruited to proteoliposomes (without PIPs or Arf1) in test [1] was determined as 25%. In addition, in test [2], the percent of AP-3 recruited to proteoliposomes (Vam3 alone) is more than 25%; the percent of AP-3 recruited to proteoliposomes (Vam3 with low amounts of Arf1 and PIPs) was 50%; the percent of AP-3 recruited to proteoliposomes (without PIPs or Arf1) came out at 25%.
In test [3], “full-length yeast AP-1 complex (from UniProt Q12028 1-832)” returned a fold increase in membrane-bound AP-1 with both Arf1-GTP and PI3P or PI4P of 2 to 3 fold; a percent of the complex bound to liposomes with Arf1-GTP (no PIPs) of 10%.

B1: Aps3 (σ-subunit of yeast AP-3) (natural protein, S. cerevisiae, UniProt P47064 1-194, looked up)
chain: MIHAVLIFNKKCQPRLVKFYTPVDLPKQKLLLEQVYELISQRNSDFQSSFLVTPPSLLLSNENNNDEVNNEDIQIIYKNYATLYFTFIVDDQESELAILDLIQTFVESLDRCFTEVNELDLIFNWQTLESVLEEIVQGGMVIETNVNRIVASVDELNKAAESTDSKIGRLTSTGFGSALQAFAQGGFAQWATGQ
notes: Aps3, σ-subunit of the yeast AP-3 complex
Take B1: the binding result in test [4] and in test [5] was “binds” in each case.
For the molecule B2, in test [6], the binding result was “binds”.

B3: Nyv1 (yeast SNARE, AP-3 cargo with Yxxφ motif) (natural protein, UniProt Q12255 1-253, looked up)
chain: MKRFNVSYVEVIKNGETISSCFQPFQKNENYGTITSANEQITPVIFHNLIMDMVLPKVVPIKGNKVTKMSMNLIDGFDCFYSTDDHDPKTVYVCFTLVDMPKILPIRILSGLQEYESNATNELLSSHVGQILDSFHEELVEYRNQTLNSSGNGQSSNGNGQNTISDIGDATEDQIKDVIQIMNDNIDKFLERQERVSLLVDKTSQLNSSSNKFRRKAVNIKEIMWWQKVKNITLLTFTIILFVSAAFMFFYLW
notes: Nyv1, yeast SNARE; source: reconstituted into proteoliposomes
Turning to B3, the binding result in test [7] is “binds”.

B4: Apm3 (μ3-subunit of yeast AP-3) (natural protein, S. cerevisiae, UniProt P38153 1-483, looked up)
chain: MYLSFYITDTKNKLIFQYLLGATAPSFKHLWTRVQSTCPQLLEDSSSDDYLDHSMVGRDLEVYKYFSVINKLNYWCLASTSKSKGPLDCFTFLETIDRILLEYFDKDKLSIKKIVNNYDRISLIFNCCVEAGEPNVSDMLYVNKIKEAVPERSDLSKFISSTAHNLQQAVQLPQQRQQQLQQNQISRGSNSLIENEEIVPWRTSRASKHENNELYVDLLETFHVVFEKKKSHLRLLTGSIHGIVDVRSYLNDNPLVAVKLNTMGNDIGIPSLHDCVEINDGVFSPSNITFIPPDGKFRLLEYSVDLSSQVKQSGVRMNSIGLMSLHFQNGLGKDSDEFELSLNIENFKKVSQVDDLKIDLQFNVENADPNEIAYKIKILRNTHGRFENSIIMGQGQWIFDKSTATGTVPVLRGCIEYENTGPNFTKKVDLQTVSLEYSYIGQSASGIYVEAIDIVSGLTIGKNTKLYKGAKYKTQTGNFQVRL
notes: Apm3, μ3-subunit of the yeast AP-3 complex; N-terminal domain aa 1–138, linker aa 139–211
B4: the binding result in test [5] and in test [6] was “binds” in each case.
